# Assay results from patent US20180244758A1 (MAPP BIOPHARMACEUTICAL, published 2018).
# Key:
# Assay in all cases: cell-based or functional assay
# [1] = target: T1, RESTV GP on rVSV particles (Reston virus (RESTV), UniProt Q66799 34-677)
# T1 sequence: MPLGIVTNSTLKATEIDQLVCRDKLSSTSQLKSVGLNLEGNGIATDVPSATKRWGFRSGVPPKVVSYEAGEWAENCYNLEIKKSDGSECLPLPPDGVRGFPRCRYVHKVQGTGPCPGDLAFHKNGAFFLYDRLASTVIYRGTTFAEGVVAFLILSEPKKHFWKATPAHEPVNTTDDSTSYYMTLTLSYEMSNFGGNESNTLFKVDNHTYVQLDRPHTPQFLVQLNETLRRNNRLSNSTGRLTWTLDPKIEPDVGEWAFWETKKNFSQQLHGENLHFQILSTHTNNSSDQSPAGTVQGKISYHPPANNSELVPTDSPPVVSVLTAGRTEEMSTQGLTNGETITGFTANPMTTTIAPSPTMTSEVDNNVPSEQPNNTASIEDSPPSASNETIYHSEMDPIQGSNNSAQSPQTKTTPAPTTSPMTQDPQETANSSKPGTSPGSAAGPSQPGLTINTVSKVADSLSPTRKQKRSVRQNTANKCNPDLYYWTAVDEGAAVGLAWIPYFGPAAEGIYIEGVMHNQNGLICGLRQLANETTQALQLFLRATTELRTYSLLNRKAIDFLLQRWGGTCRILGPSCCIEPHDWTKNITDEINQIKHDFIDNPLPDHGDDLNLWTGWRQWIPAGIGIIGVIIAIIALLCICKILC
# [2] = target: T2, TAFV GP on VSV pseudotype particles (Tai Forest virus (TAFV), UniProt Q66810 33-676)
# T2 sequence: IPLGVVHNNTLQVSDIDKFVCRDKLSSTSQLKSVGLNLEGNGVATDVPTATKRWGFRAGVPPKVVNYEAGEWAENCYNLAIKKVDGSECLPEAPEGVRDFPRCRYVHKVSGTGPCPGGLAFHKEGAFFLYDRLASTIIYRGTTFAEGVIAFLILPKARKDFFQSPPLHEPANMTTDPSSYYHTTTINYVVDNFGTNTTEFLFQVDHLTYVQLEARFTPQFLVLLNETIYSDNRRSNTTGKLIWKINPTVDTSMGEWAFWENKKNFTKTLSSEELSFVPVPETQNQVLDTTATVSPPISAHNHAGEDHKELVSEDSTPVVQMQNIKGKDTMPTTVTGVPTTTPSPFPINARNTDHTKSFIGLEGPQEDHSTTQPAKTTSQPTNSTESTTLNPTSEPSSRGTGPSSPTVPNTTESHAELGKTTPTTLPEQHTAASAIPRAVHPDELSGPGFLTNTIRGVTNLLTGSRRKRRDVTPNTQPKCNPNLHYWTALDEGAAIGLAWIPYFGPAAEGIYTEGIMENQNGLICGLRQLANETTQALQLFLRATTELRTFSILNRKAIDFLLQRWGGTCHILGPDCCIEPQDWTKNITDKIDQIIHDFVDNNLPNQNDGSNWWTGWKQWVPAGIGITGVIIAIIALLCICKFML
# [3] = target: T3, SUDV GP on rVSV particles (Sudan virus (SUDV), UniProt Q66814 33-676)
# T3 sequence: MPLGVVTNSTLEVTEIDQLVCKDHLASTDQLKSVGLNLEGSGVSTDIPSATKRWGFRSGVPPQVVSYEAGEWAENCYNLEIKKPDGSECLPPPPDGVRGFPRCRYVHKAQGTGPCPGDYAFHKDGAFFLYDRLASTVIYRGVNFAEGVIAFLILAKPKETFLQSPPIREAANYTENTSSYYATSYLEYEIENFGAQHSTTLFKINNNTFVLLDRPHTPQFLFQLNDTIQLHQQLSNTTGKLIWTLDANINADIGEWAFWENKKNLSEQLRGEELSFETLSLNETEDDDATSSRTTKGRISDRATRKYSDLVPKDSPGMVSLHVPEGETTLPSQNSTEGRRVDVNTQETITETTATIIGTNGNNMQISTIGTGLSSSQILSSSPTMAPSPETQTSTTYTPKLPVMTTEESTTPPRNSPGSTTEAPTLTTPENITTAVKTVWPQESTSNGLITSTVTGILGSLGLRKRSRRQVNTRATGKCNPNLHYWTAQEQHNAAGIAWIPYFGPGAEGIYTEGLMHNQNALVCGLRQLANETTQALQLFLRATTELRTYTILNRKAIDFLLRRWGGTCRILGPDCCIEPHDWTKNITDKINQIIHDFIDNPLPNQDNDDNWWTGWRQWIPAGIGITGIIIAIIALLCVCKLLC
# [4] = target: BDBV GP on rVSV particles (Bundibugyo virus (BDBV))
# [5] = target: T4, EBOV GP on rVSV particles (Ebola virus (EBOV), UniProt Q05320 33-676)
# T4 sequence: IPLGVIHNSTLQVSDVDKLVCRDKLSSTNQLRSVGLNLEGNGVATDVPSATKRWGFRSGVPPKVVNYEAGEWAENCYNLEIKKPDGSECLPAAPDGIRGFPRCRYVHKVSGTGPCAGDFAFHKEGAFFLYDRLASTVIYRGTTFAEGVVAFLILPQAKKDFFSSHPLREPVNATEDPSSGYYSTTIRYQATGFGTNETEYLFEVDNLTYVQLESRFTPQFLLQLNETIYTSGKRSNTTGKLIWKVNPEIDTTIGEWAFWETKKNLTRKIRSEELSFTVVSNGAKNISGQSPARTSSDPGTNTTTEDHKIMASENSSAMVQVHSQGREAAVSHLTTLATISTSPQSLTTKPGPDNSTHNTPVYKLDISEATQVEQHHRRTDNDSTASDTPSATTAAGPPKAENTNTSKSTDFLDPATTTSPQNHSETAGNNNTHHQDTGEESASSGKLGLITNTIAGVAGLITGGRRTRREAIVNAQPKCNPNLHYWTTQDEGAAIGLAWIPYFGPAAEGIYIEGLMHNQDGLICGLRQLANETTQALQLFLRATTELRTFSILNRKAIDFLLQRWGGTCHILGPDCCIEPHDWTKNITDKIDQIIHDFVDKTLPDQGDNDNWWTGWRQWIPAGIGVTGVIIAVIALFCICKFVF
# [6] = target: T1, RESTV GP on rVSV particles; remark: listed apart in the source
# [7] = target: T5, EBOV GPCL on cleaved VSV-GP particles (Ebola virus (EBOV), UniProt Q05320 33-676)
# T5 sequence: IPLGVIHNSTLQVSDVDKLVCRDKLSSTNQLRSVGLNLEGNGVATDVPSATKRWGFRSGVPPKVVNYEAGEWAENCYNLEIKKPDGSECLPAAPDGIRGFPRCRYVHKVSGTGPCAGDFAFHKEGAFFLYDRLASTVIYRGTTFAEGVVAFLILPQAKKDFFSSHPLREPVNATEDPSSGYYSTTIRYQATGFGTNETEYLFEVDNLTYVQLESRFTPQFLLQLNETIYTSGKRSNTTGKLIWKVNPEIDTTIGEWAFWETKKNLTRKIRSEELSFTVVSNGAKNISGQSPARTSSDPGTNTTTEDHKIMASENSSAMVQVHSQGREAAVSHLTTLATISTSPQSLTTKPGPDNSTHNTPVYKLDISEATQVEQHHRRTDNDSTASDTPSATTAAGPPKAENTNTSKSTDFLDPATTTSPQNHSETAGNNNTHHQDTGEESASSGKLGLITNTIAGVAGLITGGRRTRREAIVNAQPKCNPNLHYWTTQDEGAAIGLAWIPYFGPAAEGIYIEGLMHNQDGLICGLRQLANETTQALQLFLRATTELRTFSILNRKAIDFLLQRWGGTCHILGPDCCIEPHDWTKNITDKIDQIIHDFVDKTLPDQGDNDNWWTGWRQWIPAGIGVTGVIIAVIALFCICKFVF
# [8] = target: T6, GP of authentic (wild-type) SUDV (Sudan virus (SUDV), UniProt Q66814 33-676)
# T6 sequence: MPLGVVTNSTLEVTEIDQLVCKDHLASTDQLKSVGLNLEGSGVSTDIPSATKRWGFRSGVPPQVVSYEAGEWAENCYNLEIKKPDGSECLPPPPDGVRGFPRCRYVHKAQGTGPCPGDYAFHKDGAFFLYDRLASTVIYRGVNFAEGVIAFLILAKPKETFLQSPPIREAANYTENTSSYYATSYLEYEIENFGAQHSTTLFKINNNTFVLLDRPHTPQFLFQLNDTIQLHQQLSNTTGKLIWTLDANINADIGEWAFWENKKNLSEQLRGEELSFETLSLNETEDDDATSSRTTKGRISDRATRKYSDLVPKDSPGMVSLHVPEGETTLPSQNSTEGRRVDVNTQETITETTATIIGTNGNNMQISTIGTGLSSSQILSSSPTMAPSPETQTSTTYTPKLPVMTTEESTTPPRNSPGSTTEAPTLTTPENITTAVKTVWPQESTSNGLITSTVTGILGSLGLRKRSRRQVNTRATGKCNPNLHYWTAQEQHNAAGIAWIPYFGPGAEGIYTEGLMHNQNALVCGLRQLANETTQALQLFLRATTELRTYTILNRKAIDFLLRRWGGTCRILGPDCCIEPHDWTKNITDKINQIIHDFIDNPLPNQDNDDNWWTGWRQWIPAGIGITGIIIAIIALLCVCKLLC
Binder,"Neutralization (VSV-GP IC50, nM) [1]",rVSV-GP neutralization IC50 [2],rVSV-GP neutralization IC50 [3],rVSV-GP neutralization IC50 [4],rVSV-GP neutralization IC50 [5],rVSV-GP neutralization IC50 [6],"Neutralization (VSV-GP IC50, nM) [7]",Microneut. WT IC50 [8]
"mAb PE-05 (antibody, V domains shown) VH: QVQLQESGGGLVKPGRSLRLSCTASGFTFGDYAMSWFRQAPGKGLEWVGFLRSKAYGGTAEYAASVKGRFTMSRDDSKSIAYLQMNSLKTEDTAVYFCTRDGFRGSSWGYSYYGMDVWGQGTTVTVSS VL: not shown",22 nM,0.8 nM,34 nM,4 nM,9 nM,22 nM,–,–
"mAb PE-87 (antibody, V domains shown) VH: QVQLVQSGVTLVQPGGSLRVSCAASGFTFSSYAMSWVRQAPGKGLEWVSAISGLGGSTYYADSVKGRFTISRDNSKNTLYLQMNSLRAEDTAVYYCAKDHRVWAAGYHFDYWGQGALVTVSS VL: DIVLTQSPSTLSASVGDRVTITCRASQSISSWLAWYQQKPGEAPKLLISDASSLESGVPSRFSGSGSGTEFTLTISSLQPDDFATYYCQQYYSSPTFGGGTKVEIK",0.2 nM,1 nM,0.3 nM,0.5 nM,0.5 nM,0.2 nM,0.2 nM,0.3 nM
"mAb PE-24 (antibody, V domains shown) VH: EVQLVESGGGLVQPGGSLRLSCAASGFTFSSYAMSWVRQAPGKGLEWVSEISGLGGSTYYADSAKGRFTISRDNSKSTLYLQMNSLRAEDTAVYYCAKDHRVWAPGYYFDHWGQGTLVTVSS VL: DIVLTQSPSTLSASVGDRVTITCRASQSISSWLAWYQQKPGKAPKLLIYDASSLESGVPSRFSGSGSGTEFTLTISSLQPDDFATYFCQQYNRSPTFGGGTKVEIK",0.2 nM,1.5 nM,0.5 nM,1 nM,2 nM,0.2 nM,0.6 nM,0.4 nM
"mAb PE-47 (antibody, V domains shown) VH: EVQLVESGGGLVKPGGSLRLSCAASGFTFSNAWMSWVRQAPGEGLEWVGRIKSKTDGGTIDYAAPVKGRFTISRDDSKNTVYLQMTSLKTEDTAVYYCTTYTEDMQYFDWLLRGGETFDYWGQGTLVTVSS VL: DIQMTQSPSSLSASVGDRVTITCRASQYISTYLNWYQQKPGKAPKLLIYAAYNLQSGVPSRFSGSGSGTDFTLTISSLQPEDFATYYCQQSYSTPGRYTFGQGTKVEIK",–,–,–,–,–,–,0.08 nM,< 0.1 nM
"mAb PE-16 (antibody, V domains shown) VH: QVQLVQSGAEVTKPGASVKVSCKASGYTFTTYYMHWVRQAPGQGLEWVGIINPSGGITRYAQKFQGRVTLTRDTSTTTVYMELSSLRSEDTAVYYCARDRYPVLFATDYGMDVWGQGTTVTVSS VL: DIVMTQSPATLSLSPGERATLSCRASQSVSGYLAWYQQKPGQAPRLLIYDASNRATGIPARFSGSGSGTDFTLTISSLEPEDFAVYYCQQRSIWPPGVTFGGGTKVEIK",–,4.8 nM,–,0.6 nM,0.2 nM,–,5.7 nM,–
